Assay results reported in patent publication US20220411525A1, “BCMA AS A TARGET FOR T CELL REDIRECTING ANTIBODIES IN B CELL LYMPHOMAS” (Janssen Pharmaceutica NV, priority 2021, published 2022).

Target: B cell maturation antigen (BCMA) (human) (UniProt Q02223)
Experiment: cell-based or functional assay

B cell maturation antigen (BCMA) (human), sequence (Q02223 whole entry): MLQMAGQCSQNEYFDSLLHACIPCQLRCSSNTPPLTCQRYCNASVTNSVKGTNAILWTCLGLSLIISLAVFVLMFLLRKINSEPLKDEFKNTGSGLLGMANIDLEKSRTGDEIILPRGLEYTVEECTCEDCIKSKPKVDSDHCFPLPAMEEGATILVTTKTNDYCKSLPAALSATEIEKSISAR

average lysis of primary CLL cells, HD PBMCs 10:1 E:T, 48 h, 100 ng/mL, no γ-secretase inhibitor (first T cell donor): 12.9%
average lysis of primary CLL cells, HD PBMCs 10:1 E:T, 48 h, 100 ng/mL, no γ-secretase inhibitor (second T cell donor): 16.4%
average lysis of primary CLL cells, HD PBMCs 10:1 E:T, 48 h, 100 ng/mL, with 100 nM γ-secretase inhibitor (first T cell donor): 14.9%
average lysis of primary CLL cells, HD PBMCs 10:1 E:T, 48 h, 100 ng/mL, with 100 nM γ-secretase inhibitor (second T cell donor): 21.6%
lysis of primary CLL cells by HD CD8+ T cells, 5:1 E:T, 96 h, 100 ng/mL: < 60%
mean lysis of primary CLL cells by autologous CLL derived T cells, 5:1 E:T, 96 h, 100 ng/mL: 40%
Substance: BCMAxCD3 DuoBody Teclistamab (JNJ-64007957) (bispecific antibody)
average cell death of primary CLL cells, HD PBMCs 10:1 E:T, 96 h, 100 ng/mL, no γ-secretase inhibitor (first T cell donor): 15.8%
average cell death of primary CLL cells, HD PBMCs 10:1 E:T, 96 h, 100 ng/mL, no γ-secretase inhibitor (second T cell donor): 20%
average cell death of primary CLL cells, HD PBMCs 10:1 E:T, 96 h, 100 ng/mL, with 100 nM γ-secretase inhibitor (first T cell donor): 25.8%
average cell death of primary CLL cells, HD PBMCs 10:1 E:T, 96 h, 100 ng/mL, with 100 nM γ-secretase inhibitor (second T cell donor): 27.4%
